The RNAGym collection of RNA variant scans (doi:10.1021/acssynbio.7b00057)

B1: Pistol ribozyme (parent)
chain: GGGUCGUUGUUCCAUAAUCGCGUGGAUAUGGCACGCAAGUUUCUACCGGGCACCGUAAAUGUCCGACUGGAGCCGUUCGGGCGGCUAUAAACAGACCUCAGGCCCGAAGCGUGGCGGCACCUGCCGCCGGUGGUAAAAAAGAUCGGAAGAGCACACGUCU

Variants of: B1
Assay: aptazyme ON/OFF ratio, guanine; higher = stronger switching; co-transcriptional cleavage with and without guanine

Variant | aptazyme ON/OFF ratio
U7G U8A G9A U10C C12U | 1.09
U7G U8A G9A U10C C12G | 1.15
U7G U8A G9A U10C C12A | 1.1
U7G G9U U10C U11G C12G C13A | 1.13
U7G G9U U10C U11G C12G C13G | 1.12
U7G G9U U10C U11G C12G C13U | 1.06
U7G U8A G9A U10G U11A C12A C13A | 1.04
U7G U8A G9A U10G U11A C12A C13G | 1.16
U7G U8A G9A U10G U11A C12A C13U | 1.07
U7G G9U U11A C12G C13U | 1.36
U7G G9U U11A C12G C13G | 1.23
U7G G9U U11A C12G C13A | 1.1
U7G U8A G9A U10C U11A C12A C13G | 1.07
U7G U8A G9A U10C U11A C12A C13U | 1.13
U7G U8A G9A U10C U11A C12A C13A | 1.2
U7G U8A G9A U10C U11A | 1.4
U7G U8A G9A U10C U11C | 1.06
U7G U8A G9A U10C U11G | 1.24
U7G U8A G9A U10C C12U C13G | 1.07
U7G U8A G9A U10C C12U C13A | 1.08
U7G U8A G9A U10C C12U C13U | 1.12
U7G U8A G9A C12U C13A | 1.13
U7G U8A G9A C12U C13U | 1.08
U7G U8A G9A C12U C13G | 1.1

Variant | aptazyme ON/OFF ratio
U7G U8A G9A U10C U11C C13A | 1.04
U7G U8A G9A U10C U11C C13G | 1.02
U7G U8A G9A U10C U11C C13U | 1.03
U7G G9U U11A C12U C13A | 1.25
U7G G9U U11A C12U C13G | 1.27
U7G G9U U11A C12U C13U | 1.07
U7G U8A C12U C13G | 1.38
U7G U8A C12U C13A | 1.43
U7G U8A C12U C13U | 1.42
U7G U8A G9A | 2.45
U7G U8A G9A U10A U11A C12A C13A | 1.09
U7G U8A G9A U10A U11A C12A C13U | 1.12
U7G U8A G9A U10A U11A C12A C13G | 1.04
U7G U8A G9A U10A U11A C13G | 1.06
U7G U8A G9A U10A U11A C13A | 1.09
U7G U8A G9A U10A U11A C13U | 1.23
U7G G9U U10G U11C C12U C13U | 1.44
U7G G9U U10G U11C C12U C13A | 1.23
U7G G9U U10G U11C C12U C13G | 1.25
U7G G9U U11C C12G C13U | 1.37
U7G G9U U11C C12G C13A | 1.22
U7G G9U U11C C12G C13G | 1.26
U7G U8A G9A U10A U11A C12A | 1.18
U7G U8A G9A U10A U11A C12U | 1.18

Variant | aptazyme ON/OFF ratio
U7G U8A G9A U10A U11A C12G | 1.26
U7G G9U U10G U11G C12U C13U | 1.29
U7G G9U U10G U11G C12U C13G | 1.05
U7G G9U U10G U11G C12U C13A | 1.22
U7G G9U U10G U11C C13U | 1.1
U7G G9U U10G U11C C13A | 1.2
U7G G9U U10G U11C C13G | 1.11
U7G U8A G9A U10G C13U | 1.35
U7G U8A G9A U10G C13G | 1.2
U7G U8A G9A U10G C13A | 1.08
U7G U8A G9A U10A U11C C12A C13U | 1.14
U7G U8A G9A U10A U11C C12A C13A | 1.15
U7G U8A G9A U10A U11C C12A C13G | 1.12
U7G G9U U10G C12A C13G | 1.12
U7G G9U U10G C12A C13U | 1.41
U7G G9U U10G C12A C13A | 1.12
U7G U8A G9A U10C U11G C12A C13G | 1.07
U7G U8A G9A U10C U11G C12A C13A | 1.07
U7G U8A G9A U10C U11G C12A C13U | 1.13
U7G U8A G9A U10G C12U C13A | 1.27
U7G U8A G9A U10G C12U C13U | 1.13
U7G U8A G9A U10G C12U C13G | 1.35
U7G U8A G9A U10A C12A C13G | 1.12
U7G U8A G9A U10A C12A C13U | 1.14

Variant | aptazyme ON/OFF ratio
U7G U8A G9A U10A C12A C13A | 1.2
U7G G9U U10G U11A C12A C13U | 1.16
U7G G9U U10G U11A C12A C13A | 1.16
U7G G9U U10G U11A C12A C13G | 1.06
U7G G9U U10G U11C C12G C13G | 1.07
U7G G9U U10G U11C C12G C13A | 1.16
U7G G9U U10G U11C C12G C13U | 1.36
U7G U8A G9A U10A U11G C12U C13A | 1.07
U7G U8A G9A U10A U11G C12U C13G | 1.24
U7G U8A G9A U10A U11G C12U C13U | 1.15
U7G U8A G9A U10G | 1.49
U7G U8A G9A U10A | 1.77
U7G U8A G9A U10C | 2.73
U7G G9U U10C U11C C12U C13A | 1.25
U7G G9U U10C U11C C12U C13U | 1.29
U7G G9U U10C U11C C12U C13G | 1.23
U7G G9U U11C C12A C13U | 1.41
U7G G9U U11C C12A C13G | 1.28
U7G G9U U11C C12A C13A | 1.42
U7G G9U U10C U11A C13U | 1.36
U7G G9U U10C U11A C13G | 1.16
U7G G9U U10C U11A C13A | 1.34
U7G U8A G9A U10C U11G C12U | 1.28
U7G U8A G9A U10C U11G C12A | 1.04

Variant | aptazyme ON/OFF ratio
U7G U8A G9A U10C U11G C12G | 1.32
U7G U8A G9A U10G U11A C12G | 1.11
U7G U8A G9A U10G U11A C12A | 1.12
U7G G9U U11A C13U | 1.27
U7G G9U U11A C13A | 1.34
U7G G9U U11A C13G | 1.13
U7G U8A | 1.54
U7G U8A C12A C13A | 1.27
U7G U8A C12A C13G | 1.14
U7G U8A C12A C13U | 1.23
U7G G9U U11G C12U | 1.2
U7G G9U U11G C12G | 1.74
U7G G9U U11G C12A | 1.82
U7G G9U U10C U11G C12G | 1.25
U7G G9U U10C U11G C12U | 1.49
U7G G9U U10C U11G C12A | 1.13
U7G G9U U10G U11A C13U | 1.17
U7G G9U U10G U11A C13G | 1.16
U7G G9U U10G U11A C13A | 1.15
U7G U8A G9A U10C U11C C12G | 1.09
U7G U8A G9A U10C U11C C12A | 1.11
U7G U8A G9A U10C U11C C12U | 1.06
U7G G9U U10C U11G | 2.9
U7G G9U U10C U11C | 1.42

Variant | aptazyme ON/OFF ratio
U7G U8A G9A U10G C12G | 1.09
U7G U8A G9A U10G C12A | 1.32
U7G U8A G9A U10G C12U | 1.52
U7G U8A G9A U10C U11G C12G C13G | 1.19
U7G U8A G9A U10C U11G C12G C13U | 1.08
U7G U8A G9A U10C U11G C12G C13A | 1.2
U7G G9U U11G C12A C13U | 1.26
U7G G9U U11G C12A C13A | 1.11
U7G G9U U11G C12A C13G | 1.2
U7G U8A G9A U10A U11G C13U | 1.16
U7G U8A G9A U10A U11G C13G | 1.07
U7G U8A G9A U10A U11G C13A | 1.14
U7G G9U U11C C12U C13A | 1.37
U7G G9U U11C C12U C13U | 1.31
U7G G9U U11C C12U C13G | 1.3
U7G G9U U10G | 3.04
U7G U8A G9A U10A U11G C12G C13G | 1.12
U7G U8A G9A U10A U11G C12G C13U | 1.17
U7G U8A G9A U10A U11G C12G C13A | 1.1
U7G G9U U11A C12U | 1.32
U7G G9U U11A C12G | 1.46
U7G G9U U11A C12A | 1.56
U7G G9U U10C U11C C12G | 1.23
U7G G9U U10C U11C C12U | 1.41

Variant | aptazyme ON/OFF ratio
U7G G9U U10C U11C C12A | 1.37
U7G G9U U10C U11A C12U C13U | 1.33
U7G G9U U10C U11A C12U C13G | 1.23
U7G G9U U10C U11A C12U C13A | 1.33
U7G G9U U10G C12G C13A | 1.15
U7G G9U U10G C12G C13U | 1.4
U7G G9U U10G C12G C13G | 1.2
U7G U8A G9A U10G U11A | 1.01
U7G U8A G9A U10A C12G C13A | 1.06
U7G U8A G9A U10A C12G C13G | 1.09
U7G U8A G9A U10A C12G C13U | 1.1
U7G U8A G9A U10A U11C | 1.03
U7G U8A G9A U10A U11G | 1.28
U7G U8A G9A U10A U11A | 1.45
U7G U8A G9A U10C U11C C12A C13A | 1.07
U7G U8A G9A U10C U11C C12A C13U | 1.08
U7G U8A G9A U10C U11C C12A C13G | 1.25
U7G U8A C12U | 1.44
U7G U8A C12A | 1.27
U7G U8A C12G | 1.35
U7G U8A G9A U10G C12A C13A | 1.18
U7G U8A G9A U10G C12A C13U | 1.37
U7G U8A G9A U10G C12A C13G | 1.06
